# Measured values taken from patent US9994616B2, “c-Met protein agonist” (The University of Tokyo, priority 2013, dated 2018).
# Bridges are numbered along the chain shown (N, C = ends). Roman numbers before positions name the chains, in order. Where no end group is shown, it is not given here. [ ]: non-standard residue; d: D form. fluorescein = fluorescein fluorescent label attached to the peptide; βAla = NCCC(=O)O
# What was measured:
# [1] = target: c-Met-Fc (Homo sapiens, UniProt P08581); assay: Binding ability by surface plasmon resonance (SPR, Biacore); conditions: Table 11, monomer and dimeric peptides
# Chain of c-Met-Fc (P08581 with tags, fused parts or gaps limits assumed): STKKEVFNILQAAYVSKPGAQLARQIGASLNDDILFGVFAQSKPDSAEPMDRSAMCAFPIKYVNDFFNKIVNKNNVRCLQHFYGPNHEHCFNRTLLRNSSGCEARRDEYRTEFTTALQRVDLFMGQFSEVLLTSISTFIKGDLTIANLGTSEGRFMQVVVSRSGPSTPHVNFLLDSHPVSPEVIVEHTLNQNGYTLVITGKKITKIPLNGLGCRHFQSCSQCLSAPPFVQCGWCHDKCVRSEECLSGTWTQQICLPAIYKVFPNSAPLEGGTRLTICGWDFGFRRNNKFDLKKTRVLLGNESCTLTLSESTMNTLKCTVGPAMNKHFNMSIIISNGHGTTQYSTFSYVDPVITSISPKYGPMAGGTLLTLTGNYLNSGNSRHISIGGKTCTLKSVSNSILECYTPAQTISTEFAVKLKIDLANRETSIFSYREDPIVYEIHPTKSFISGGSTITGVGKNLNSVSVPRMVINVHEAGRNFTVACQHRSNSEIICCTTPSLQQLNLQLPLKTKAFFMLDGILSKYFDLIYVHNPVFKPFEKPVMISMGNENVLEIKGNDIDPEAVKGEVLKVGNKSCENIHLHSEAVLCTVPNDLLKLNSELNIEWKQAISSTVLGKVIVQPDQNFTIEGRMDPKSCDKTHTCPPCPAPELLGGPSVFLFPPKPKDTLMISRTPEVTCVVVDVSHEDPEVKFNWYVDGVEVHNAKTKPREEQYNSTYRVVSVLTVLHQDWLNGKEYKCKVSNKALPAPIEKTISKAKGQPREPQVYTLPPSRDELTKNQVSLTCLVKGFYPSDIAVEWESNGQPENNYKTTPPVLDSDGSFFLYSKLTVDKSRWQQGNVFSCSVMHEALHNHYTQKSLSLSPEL
# Chain of c-Met-Fc (P08581 25-307 limits assumed): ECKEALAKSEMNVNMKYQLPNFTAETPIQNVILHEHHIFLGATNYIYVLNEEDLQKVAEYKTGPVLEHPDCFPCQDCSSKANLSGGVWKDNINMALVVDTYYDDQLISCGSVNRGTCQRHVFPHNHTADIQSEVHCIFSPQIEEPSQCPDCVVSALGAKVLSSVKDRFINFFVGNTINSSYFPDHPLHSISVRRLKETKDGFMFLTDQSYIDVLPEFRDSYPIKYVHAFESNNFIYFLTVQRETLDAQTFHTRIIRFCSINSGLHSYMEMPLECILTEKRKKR
# Protocol: Binding ability of the thioether macrocyclic peptide was evaluated by SPR measurement using Biacore (GE Healthcare).
# As a sensor chip, Sensor Chip CM5 was used and an anti-IgG antibody was immobilized on a measurement lane and a control lane by using Human Antibody Capture Kit.
# On the measurement lane was immobilized c-Met-Fc, while on the control lane was immobilized Fc protein.
# As a running buffer, HBS-EP+ buffer containing 0.1% DMSO was used and a dissociation constant of the thioether macrocyclic peptide was calculated at 5 different concentrations by using the single-kinetics method.
# [2] = target: T1, c-Met (Homo sapiens, UniProt P08581); assay: Activity of dimeric peptide by ELISA (c-Met phosphorylation level in EHMES-1 cells); type: cell-based; conditions: for Activity (c-Met phosphorylation level by ELISA): Table 12, EHMES-1 cells, 10 minutes stimulation; for c-Met phosphorylation: Table 13
# T1 construct: endogenous in cells; host or cells: EHMES-1 (human mesothelioma)
# T1 sequence (P08581 25-1390): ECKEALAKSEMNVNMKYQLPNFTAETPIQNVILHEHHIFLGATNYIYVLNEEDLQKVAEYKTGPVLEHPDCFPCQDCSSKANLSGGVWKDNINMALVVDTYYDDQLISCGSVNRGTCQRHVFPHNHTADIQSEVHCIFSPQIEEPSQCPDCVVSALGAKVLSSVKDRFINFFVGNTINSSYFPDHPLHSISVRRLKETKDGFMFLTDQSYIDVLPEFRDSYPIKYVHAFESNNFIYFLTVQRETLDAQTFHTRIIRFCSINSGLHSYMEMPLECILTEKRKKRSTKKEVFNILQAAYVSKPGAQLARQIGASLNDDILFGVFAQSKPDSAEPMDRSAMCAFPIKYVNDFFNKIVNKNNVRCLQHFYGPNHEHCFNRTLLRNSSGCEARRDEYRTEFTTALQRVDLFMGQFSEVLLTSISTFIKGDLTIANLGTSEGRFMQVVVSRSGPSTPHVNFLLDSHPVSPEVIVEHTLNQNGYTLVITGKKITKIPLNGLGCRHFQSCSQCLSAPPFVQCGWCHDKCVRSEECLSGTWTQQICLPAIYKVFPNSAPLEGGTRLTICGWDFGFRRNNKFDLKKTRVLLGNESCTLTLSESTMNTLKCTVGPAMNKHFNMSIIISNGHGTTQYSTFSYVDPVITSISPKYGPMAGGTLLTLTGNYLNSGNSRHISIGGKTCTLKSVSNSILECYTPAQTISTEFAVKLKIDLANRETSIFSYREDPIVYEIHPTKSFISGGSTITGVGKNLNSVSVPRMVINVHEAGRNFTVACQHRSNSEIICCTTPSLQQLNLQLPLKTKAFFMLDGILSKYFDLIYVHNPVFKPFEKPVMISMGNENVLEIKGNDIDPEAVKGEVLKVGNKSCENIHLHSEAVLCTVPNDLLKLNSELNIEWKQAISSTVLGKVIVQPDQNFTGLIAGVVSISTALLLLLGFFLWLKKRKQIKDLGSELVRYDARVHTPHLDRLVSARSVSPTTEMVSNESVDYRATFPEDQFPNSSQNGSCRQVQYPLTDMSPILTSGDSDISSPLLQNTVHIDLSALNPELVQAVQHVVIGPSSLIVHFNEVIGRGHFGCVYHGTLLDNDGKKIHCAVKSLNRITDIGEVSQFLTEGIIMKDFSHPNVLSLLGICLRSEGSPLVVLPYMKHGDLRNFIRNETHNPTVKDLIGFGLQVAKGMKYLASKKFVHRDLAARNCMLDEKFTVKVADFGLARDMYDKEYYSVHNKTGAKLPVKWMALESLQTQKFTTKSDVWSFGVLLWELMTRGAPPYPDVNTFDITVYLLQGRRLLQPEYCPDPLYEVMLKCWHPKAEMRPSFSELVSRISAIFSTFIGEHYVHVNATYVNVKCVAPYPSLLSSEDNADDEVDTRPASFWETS
# Protocol: Each dimeric peptide was added to human EHMES-1 cells and the mixture was incubated for 10 minutes to stimulate the cells.
# As a control experiment, a recombinant human HGF protein was added and the mixture was incubated for 10 minutes to stimulate cells.
# A phosphorylation level of c-Met was quantitatively analyzed using ELISA.
# [3] = system: human Hcc-827 cells; assay: Cell growth of Iressa-inhibited Hcc-827 cells (MTS assay); type: cell-based; conditions: Table 13, Hcc-827 cells inhibited by Iressa
# Protocol: Dimeric peptides were added to human Hcc-827 cells whose cell growth was inhibited by the addition of Iressa and the resulting mixture was cultured to activate the cell growth ability via a c-Met signaling pathway. The cell count of the thus-cultured cells was quantitatively determined by the assay using MTS (3-(4,5-dimethylthiazol-2-yl)-5-(3carboxymethoxyphenyl)-2-(4-sulphophenyl)-2H-tetrazolium, inner salt).
# [4] = system: human c-Met expressing cells (human SNU-638 cells); assay: Localization of fluorescein-modified peptides on c-Met expressing cells (confocal microscopy); type: cell-based; conditions: 1 μM fluorescein peptide, FIG. 2A
# Protocol: To human c-Met expressing cells (human SNU-638 cells) or human c-Met non-expressing cells (human SNU-216 cells) cultured on a glass-bottom dish were added a RPMI1640 medium containing 1 mg/L of Hoechst 33342, a nuclear staining reagent, an anti-human c-Met antibody, and 1 uM of L5-2-fluorescein, D4-3-fluorescein, D5-4-fluorescein, D4-3NMe-fluorescein, or D4-3scr-fluorescein and the resulting mixture was incubated in 5% CO2 at 37° C. for 5 minutes. Then, a RPMI1640 medium containing an HRP-anti-rat secondary antibody and 1 μM of L5-2-fluorescein, D4-3-fluorescein, D5-4-fluorescein, D4-3NMe-fluorescein, or D4-3scr-fluorescein was added and the resulting mixture was incubated in 5% CO2 at 37° C. for 5 minutes.
# The cells were washed three times with a D-MEM medium and were microscopically observed in a new RPMI1640 medium. The localization of the peptide was observed using a confocal fluorescence microscope for the microscopic observation.
# [5] = system: human HuCCT1 cells; assay: Cell migration of HuCCT1 cells on pore-containing plate; type: cell-based; conditions: Table 13
# Protocol: In addition, human HuCCT1 cells were seeded on a pore-containing plate and cultured in a medium mixed with each of the dimeric peptides to evaluate activation of cell migration ability.
# [6] = target: T1, c-Met; assay: Activity of dimeric peptide by Phospho-RTK array in EHMES-1 cells; type: cell-based; conditions: optimum concentration, 10 minutes, FIG. 4
# Protocol: (§1) The optimum concentration of each dimeric peptide was added to cultured EHMES-1 cells derived from human mesothelioma and the resulting mixture was incubated for 10 minutes to stimulate the cells. As a control experiment, 2 nM recombinant human HGF protein was added, followed by incubation for 10 minutes.
# The resulting cells were lyzed and the lysate thus obtained was analyzed using Phospho-RTK array (R&D Systems) to evaluate whether or not the c-Met of the cells was phosphorylated.
# [7] = system: c-Met, Gab1, Akt, and Erk proteins; assay: Activity of dimeric peptide by western blotting in EHMES-1 cells; type: cell-based, human; conditions: 10 minutes, FIG. 5
# Protocol: as §1, with “each of the” for “each”, “peptides” for “peptide”, “nM of a” for “nM”
# The cells were lysed and the resulting lysate was electrophoresed using a 10% modified polyacrylamide gel. After transcription of the protein thus separated to an Immobilon-P PVDF membrane (Millipore) and blocking with PVDF Blocking Reagent for Can Get Signal (TOYOBO), a primary antibody reaction of it was performed overnight at 4° C. in Can Get Signal Solution 1 (TOYOBO). As the antibody, anti-Met (Millipore, EP1454Y), anti-Phospho-Met Tyr1234/1235 (Cell Signaling Technology, D26), anti-Phospho-Met Tyr1349 (Millipore, 07-808), anti-Akt (Cell Signaling Technology, 11E7), anti-Phospho-Akt Thr308 (Cell Signaling Technology, D25E6), anti-Erk1/2 (Cell Signaling Technology, 137F5), anti-Phospho-Erk1/2 Thr202/Tyr204 (Cell Signaling Technology, D13.14.4E), anti-Gab1 (Cell Signaling Technology), or anti-Phospho-Gab1 Tyr 627 (Cell Signaling Technology, C32H2) was used. Then, a secondary antibody reaction was performed at room temperature for one hour in Can Get Signal Solution 2 (TOYOBO) by using an anti-rabbit antibody HRP conjugate. […]
ka [1],kd [1],Activity (c-Met phosphorylation level by ELISA) [2],c-Met phosphorylation [2],KD [1],Autophosphorylation of c-Met (Phospho-RTK array) [6],Substance,Cell growth [3],Binding to c-Met expressing cells [4],Cell migration [5],"Phosphorylation of c-Met, Gab1, Akt, and Erk proteins (western blotting) [7]"
2.0 10^6 M^−1s^−1,0.091 10^−2 s^−1,Low,Promote,–,–,"D4-3 BMH: dimeric peptide: two D4-3 macrocycles linked through C-terminal Cys by BMH linker ({CH2CO}-[dY]RQFNRRTHEVWNLDCGC; thioether N-16; not fully specified (residue 18); also: dimer: two copies joined by BMH, linker at 18 via BMH, other end not in the chain)",Activate,–,–,–
0.49 10^6 M^−1s^−1,0.040 10^−2 s^−1,High,Promote,–,–,"D4-3NMe Bis-MAL-PEG11: dimeric peptide: two D4-3NMe macrocycles linked through C-terminal Cys by Bis-MAL-PEG11 linker ({CH2CO}-[dY]RQFNRRTHEVWNLDCGC; thioether N-16; not fully specified (residue 18); also: two amino acids N-methylated (N6 + N16), dimer: two D4-3NMe macrocycles linked through C-terminal Cys by Bis-MAL-PEG11)",–,–,Activate,–
0.046 10^6 M^−1s^−1,0.055 10^−2 s^−1,High,Promote,–,–,"D5-4 BMH: dimeric peptide: two D5-4 macrocycles linked through C-terminal Cys by BMH linker (peptide 1 {CH2CO}-[dY]WYYAWDQTYKAFPCG; peptide 2 {CH2CO}-[dY]WYYAWDQTYKAFPCG; thioether I:N-I:15, II:N-II:15; not fully specified (C-terminus); also: dimer: two chains joined by BMH through an added C-terminal Cys not in the letters)",Activate,–,–,–
5.3 10^6 M^−1s^−1,1.1 10^−2 s^−1,High,Promote,–,–,"D5-4 Bis-MAL-PEG11: dimeric peptide: two D5-4 macrocycles linked through C-terminal Cys by Bis-MAL-PEG11 linker (peptide 1 {CH2CO}-[dY]WYYAWDQTYKAFPCG; peptide 2 {CH2CO}-[dY]WYYAWDQTYKAFPCG; thioether I:N-I:15, II:N-II:15; not fully specified (C-terminus); also: dimer: two chains joined by Bis-MAL-PEG11 through an added C-terminal Cys not in the letters)",–,–,Activate,–
0.083 10^6 M^−1s^−1,0.054 10^−2 s^−1,Low,Promote,–,–,"L5-2 BMH: dimeric peptide: two L5-2 macrocycles linked through C-terminal Cys by BMH linker ({CH2CO}-YISWNEFNSPNWRFITCG[βAla]C-NH2; thioether N-17; not fully specified (residue 20); also: dimer: two copies joined by BMH, linker at 20 via BMH, other end not in the chain)",Activate,–,–,–
0.22 10^6 M^−1s^−1,0.042 10^−2 s^−1,High,Promote,–,–,"L5-2 Bis-MAL-PEG3: dimeric peptide: two L5-2 macrocycles linked through C-terminal Cys by Bis-MAL-PEG3 linker ({CH2CO}-YISWNEFNSPNWRFITCG[βAla]C-NH2; thioether N-17; not fully specified (residue 20); also: dimer: two copies joined by Bis-MAL-PEG3, linker at 20 via Bis-MAL-PEG3, other end not in the chain)",–,–,Activate,–

# The next lines start with the substance.
Substance,ka [1],kd [1],Activity (c-Met phosphorylation level by ELISA) [2],c-Met phosphorylation [2],KD [1],Autophosphorylation of c-Met (Phospho-RTK array) [6],Cell growth [3],Binding to c-Met expressing cells [4],Cell migration [5],"Phosphorylation of c-Met, Gab1, Akt, and Erk proteins (western blotting) [7]"
"D4-3-fluorescein: Fluorescein-modified D4-3 peptide, fluorescein on the side chain of C-terminal lysine ({CH2CO}-[dY]RQFNRRTHEVWNLDCGK(fluorescein); thioether N-16)",–,–,–,–,–,–,–,colocalized with and bind to,–,–
D4-3NMe-fluorescein: Fluorescein-modified N-methylated D4-3 peptide ({CH2CO}-[dY]RQFNRRTHEVWNLDCGK(fluorescein); thioether N-16; also: two amino acids N-methylated (N6 + N16)),–,–,–,–,–,–,–,colocalized with and bind to,–,–
D4-3scr BMH: dimer of the negative control peptide D4-3scr with BMH linker ({CH2CO}-YERVNHLFRNQTWDRCGC; thioether N-16 (inferred); also: dimer of D4-3scr with BMH linker) [reference compound],–,–,No,Not promote,Not binding,–,–,–,Not activate,–
D4-3scr-fluorescein: Fluorescein-modified c-Met-unbinding peptide ({CH2CO}-YERVNHLFRNQTWDRCGK(fluorescein); thioether N-16 (inferred)) [reference compound],–,–,–,–,–,–,–,does not bind,–,–
"HGF: recombinant human HGF protein, natural ligand of c-Met, control",–,–,–,–,–,autophosphorylation is induced,–,–,–,promote phosphorylation
